Assay results published in article PMC3927398.

What was measured:
[1] = molecular target: actin filaments (F-actin) from rabbit skeletal muscle, phalloidin-stabilized (rabbit) (UniProt P68135); assay: co-sedimentation
[2] = molecular target: MYO19-1IQ (N-terminal FLAG-tagged human MYO19, motor domain and one IQ motif, amino acids 2-787) (human) (UniProt Q96H55); assay: co-purification

Kd [1] [nM]	fraction bound at 5 μM actin without ATP [1]	stoichiometry N (CaM/MYO19-1IQ) [2]	Substance
1200	0.8		MYO19-1IQ with bound calmodulin light chain (from UniProt Q96H55-1 2-787; P0DP23 1-149) (complex)
		1.1	calmodulin (from UniProt P0DP23 1-149) (natural protein)
